± gives the standard deviation.
Assay: protein stability index of a GFP-peptide fusion (GPS, HEK-293T) (PSI 1-6); higher = more stable
Settings: c terminus: a fixed tail appended
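Further: 24-mer peptide tiles fused after GFP, lentivirally expressed, FACS-sorted into six equal bins by GFP/DsRed ratio, decoded by Illumina sequencing, PSI is the read-weighted mean bin number.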

Row | Sequence | protein stability index (treatment: DMSO) | protein stability index (treatment: MLN4924 1 uM, 8 h)
1 | DVVEDYKKRYEEEINKRTAAENEF [KRT71] | 5.13 ± 0.093 | 5.37 ± 0.3
2 | PFPLGASAQNGLASSLPAEVHSLT [PLAGL1] | 3.94 ± 0.089 | 4.09 ± 0.16
3 | MGFAAKAMKSVHENMDLNKIDDLM [CHMP4C] | 3.59 ± 0.32 | 3.48 ± 0.3
4 | RIDELIESGKEEGMKIDLIDGKGR [KMT5A] | 4.96 ± 0.23 | 4.85 ± 0.33
5 | GSYSSTMNGHQNGLDSPPLYPSAP [ESRRG] | 4.07 ± 0.23 | 4.3 ± 0.14
6 | MSFTTRSTFSTNYRSLGSVQAPSY [KRT18] | 2.37 ± 0.29 | 2.38 ± 0.3
7 | LAPPPLPLPAAAVVHVSFPEVTSA [ZBTB22] | 3.3 ± 0.3 | 3.73 ± 0.55
8 | GKEDSTLQLLREENRALQQLLEQK [CBY2] | 4.81 ± 0.23 | 4.84 ± 0.38
9 | LTCDSSTSSSDDDEEVSGSSKTIT [C18orf25] | 5.4 ± 0.26 | 5.46 ± 0.21
10 | LEGWRPDQLYRRKKDNHALVRETD [ELOA2] | 4.45 ± 0.16 | 4.57 ± 0.12
11 | YFTNRKVNSVCWASLNHLDSHILL [DCAF4] | 2.82 ± 0.56 | 2.42 ± 0.21
12 | RHQRTHTGEKPYQCNICGKCFSCN [ZNF263] | 4.08 ± 0.43 | 4.37 ± 0.3
13 | YQRWIYRVDPTRVNEFGMSGEDPT [CLPTM1] | 2.6 ± 0.34 | 2.72 ± 0.3
14 | YQLADWCLHHICTNYNNVCRKFPR [RHOBTB2] | 2.25 ± 0.52 | 2.23 ± 0.14
15 | PEPQVPGPAHGPAQEEPWEKKESL [ZNF232] | 5.55 ± 0.29 | 5.62 ± 0.2
16 | YPAMTFYSPAVMNYSIPSNVTNLE [ESR2] | 2.63 ± 0.61 | 2.93 ± 0.25
17 | DDKHYGGFTNKQLQSGQEYVFFVL [PTPRD] | 2.64 ± 0.53 | 2.55 ± 0.43
18 | NLTSNEGHSLKNLEHRLNEMERTQ [RASAL3] | 4.28 ± 0.32 | 4.26 ± 0.25
19 | LYIFATCLGLSYDGLLGDNQIMPK [MAGEA3] | 2.92 ± 0.34 | 2.78 ± 0.52
20 | AGMGKVTSASFGEESTPGQTNSET [HDAC6] | 5.3 ± 0.29 | 5.25 ± 0.1
21 | DAWKRPDALPGQSKRLAVPCKLEK [TLE6] | 4.2 ± 0.17 | 4.28 ± 0.2
22 | NARRKLKGAILTTMLATRNFSAAK [CAMK2B] | 3.08 ± 0.33 | 3.15 ± 0.36

Row | Sequence | protein stability index (treatment: DMSO) | protein stability index (treatment: MLN4924 1 uM, 8 h)
23 | VGNISKDLGLAPRELAERGVRIVS [PCDHGA10] | 3.57 ± 0.29 | 3.75 ± 0.42
24 | EEPTERGNLEVGEPQSEPVRVLDM [FBXO34] | 5.34 ± 0.17 | 5.5 ± 0.16
25 | PKEATVMCEQCDVFYCDPCRLRCH [TRIM9] | 3.65 ± 0.28 | 3.82 ± 0.42
26 | AFCSSDEELEDSKALLYLPIAPEV [RBBP5] | 3.7 ± 0.21 | 3.66 ± 0.28
27 | QPVQSKPQKASAPAADPPRYTFAP [PDLIM7] | 4.37 ± 0.27 | 4.44 ± 0.3
28 | ILELYNIDSHLLLSVLPQLEFKLK [PDS5B] | 2.64 ± 0.53 | 2.45 ± 0.78
29 | EMKEFSSQLAGQVNVEMDAAPGVD [KRT15] | 5.29 ± 0.24 | 5.07 ± 0.11
30 | SSGAGSSPPAAPCPPPPGPAAAPE [ZBED3] | 5.36 ± 0.24 | 5.35 ± 0.085
31 | FQELAGKELCAMSEEQFRQRSPLG [SPDEF] | 3.1 ± 0.42 | 3.59 ± 0.33
32 | KMPVYSGSRPACQLQVPTLRQQCA [ELOA2] | 3.23 ± 0.32 | 3.14 ± 0.15
33 | NRNLQKFSLFGDISVLQQQGSLSN [FBXO33] | 2.83 ± 0.28 | 2.86 ± 0.32
34 | FFSKRFKSAAMLAVFAVSAVVHEY [SOAT1] | 2.35 ± 0.9 | 3.06 ± 0.41
35 | EGDATRDPGPEPEEEPGVRNGMAS [PSD2] | 5.7 ± 0.16 | 5.38 ± 0.34
36 | ILAETGIRKTVKRLRKHQHVGDFA [ELOA2] | 2.78 ± 0.23 | 3.16 ± 0.49
37 | FDPLRNEYFFDRNRPSFDAILYYY [KCNA1] | 2.68 ± 0.45 | 2.73 ± 0.48
38 | QSWNNQAWNSPFYNCGEESLQSCM [NANOGP8] | 2.51 ± 0.18 | 2.48 ± 0.33
39 | KVLEEGGFFEEKGAIFCPPCYDVR [PDLIM7] | 2.96 ± 0.29 | 2.92 ± 0.36
40 | EDMLWDDLLHGPECRSSVTSDSEG [PHTF1] | 5.07 ± 0.3 | 5.16 ± 0.16
41 | GGFGQVYKVRHVHWKTWLAIKCSP [RIPK4] | 2.35 ± 0.85 | 2.05 ± 0.32
42 | GQRDRKAEHWKHKKEESGRERKKN [PBXIP1] | 5.08 ± 0.12 | 5.4 ± 0.15
43 | AEPAPRAREGGGCGRSEVRPVAPR [SMAD6] | 4.35 ± 0.093 | 4.15 ± 0.4
44 | KLFESVECYDPRTQQWTAICPLKE [GAN] | 2.5 ± 0.38 | 2.82 ± 0.13
